Assay results reported in patent US20130011427A1 (priority 2009, published 2013).

How the values were obtained:
[1] = system: HLA-DR4/huCD4 (DRB1*0401) Tg mice, CD8-depleted splenocytes; format: cell-based, mouse
[2] = system: HLA-B7 (HLA-B*0702) Tg mice, CD4-depleted splenocytes; format: cell-based, mouse
[3] = system: HLA-A24/huCD8α (HLA-A*2402) Tg mice, CD4-depleted splenocytes; format: cell-based, mouse
[4] = system: HLA-DR2 (DRB1*1501) Tg mice, CD8-depleted splenocytes; format: cell-based, mouse
[5] = target: HLA-A24 (HLA-A*2402 with human β2-microglobulin) (human); experiment: cell-based or functional assay
[6] = target: HLA-DR4 (HLA-DRA*0101 / HLA-DRB1*0401) (human); experiment: cell-based or functional assay
[7] = target: HLA-DR2 (chimeric HLA-DRA1*0101/DRB1*1501 with I-E domains) (human; murine) (UniProt Q8BHN5); experiment: cell-based or functional assay
[8] = target: HLA-B7 (chimeric HLA-B*0702 / H-2K^d heavy chain) (human; murine) (UniProt P01902); experiment: cell-based or functional assay
[9] = target: HLA-DR3 (HLA-DRA*0101 / HLA-DRB1*0301) (human); experiment: cell-based or functional assay

UniProt P01902, sequence (P01902 whole entry, change not shown): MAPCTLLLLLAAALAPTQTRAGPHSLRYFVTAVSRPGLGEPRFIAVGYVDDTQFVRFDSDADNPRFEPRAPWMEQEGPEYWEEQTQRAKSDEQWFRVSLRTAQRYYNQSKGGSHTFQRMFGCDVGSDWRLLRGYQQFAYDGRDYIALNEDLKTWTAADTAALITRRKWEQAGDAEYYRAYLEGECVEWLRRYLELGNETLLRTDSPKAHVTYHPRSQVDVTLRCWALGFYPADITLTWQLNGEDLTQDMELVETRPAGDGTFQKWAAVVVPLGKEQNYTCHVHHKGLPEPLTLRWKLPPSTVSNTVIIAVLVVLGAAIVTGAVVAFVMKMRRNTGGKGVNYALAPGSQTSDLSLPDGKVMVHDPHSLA
UniProt Q8BHN5, sequence (Q8BHN5 whole entry, stated change not applied): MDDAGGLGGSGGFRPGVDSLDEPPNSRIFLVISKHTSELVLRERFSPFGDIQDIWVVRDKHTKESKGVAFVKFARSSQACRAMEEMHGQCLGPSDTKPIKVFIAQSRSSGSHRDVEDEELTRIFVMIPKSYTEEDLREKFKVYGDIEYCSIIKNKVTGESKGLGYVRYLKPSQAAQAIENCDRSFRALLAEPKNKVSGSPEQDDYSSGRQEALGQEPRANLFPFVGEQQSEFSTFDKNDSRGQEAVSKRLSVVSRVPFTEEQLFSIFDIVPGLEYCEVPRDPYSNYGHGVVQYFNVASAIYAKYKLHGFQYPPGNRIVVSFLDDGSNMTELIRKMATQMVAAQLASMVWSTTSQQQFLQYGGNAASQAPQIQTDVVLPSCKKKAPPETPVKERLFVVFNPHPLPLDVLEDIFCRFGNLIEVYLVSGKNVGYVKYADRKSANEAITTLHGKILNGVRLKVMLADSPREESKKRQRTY

IFN-γ ELISpot (SFC/10^6) [5] [SFC/10^6] | IFN-γ ELISpot (SFC/10^6) [6] [SFC/10^6] | Substance | T cell activation of HLA transgenic mice (SFC/10^6) IFN-γ ELISpot, B7 [2] [SFC/10^6] | further results
– | – | ISAYTPWAILPSVVGFWI [NS2b 107-124] | 81 ± 8 | T cell activation of HLA transgenic mice (SFC/10^6) IFN-γ ELISpot, DR4 [1]: 163 ± 4 SFC/10^6; T cell activation of HLA transgenic mice (SFC/10^6) IFN-γ ELISpot, A24 [3]: 50 ± 11 SFC/10^6
– | – | LRNPGYALVAAVIGWML [prM 129-145] | 31 ± 7 | T cell activation of HLA transgenic mice (SFC/10^6) IFN-γ ELISpot, DR2 [4]: 62 ± 11 SFC/10^6; T cell activation of HLA transgenic mice (SFC/10^6) IFN-γ ELISpot, A24 [3]: 71 ± 38 SFC/10^6
137 | 53 | WNV E 195-212 peptide | – | –
243 | 74 | WNV NS2a 45-61 peptide | – | IFN-γ ELISpot (SFC/10^6) [7]: 307 SFC/10^6
50 | 163 | WNV NS2b 107-124 peptide | – | IFN-γ ELISpot (SFC/10^6) [8]: 81 SFC/10^6
65 | 63 | WNV NS4a 86-103 peptide | – | –
79 | 33 | WNV NS5 863-879 peptide | – | IFN-γ ELISpot (SFC/10^6) [9]: 121 SFC/10^6
71 | – | WNV prM 129-145 peptide | – | IFN-γ ELISpot (SFC/10^6) [8]: 31 SFC/10^6; IFN-γ ELISpot (SFC/10^6) [7]: 62 SFC/10^6
– | – | YAQMWLLLYFHRRDLRLM [NS5 763-780] | 36 ± 16 | T cell activation of HLA transgenic mice (SFC/10^6) IFN-γ ELISpot, DR4 [1]: 91 ± 32 SFC/10^6

Substance | IFN-γ ELISpot (SFC/10^6) [5] [SFC/10^6] | IFN-γ ELISpot (SFC/10^6) [6] [SFC/10^6] | T cell activation of HLA transgenic mice (SFC/10^6) IFN-γ ELISpot, B7 [2] [SFC/10^6] | further results
WNV NS5 470-486 peptide | 183 | – | – | –
